Reference: the supplement of paper PMC10724198
± gives the standard deviation of the averaged measurements.

Key:
Saccharomyces cerevisiae [1] = assay: protein stability index of tFT-peptide fusion (C-terminal peptide) (PSI (0-1 scale)); higher = more stable (slower turnover); conditions: genetic background: wild type; temperature: 30 C
Saccharomyces cerevisiae [2] = assay: as above
Procedure: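 MPS profiling in S. cerevisiae of the tFT-X12 degron library: putative degron peptides plus stable controls, 12 aa, fused to the C-terminus of a sfGFP-mCherry timer. Cells are FACS-sorted into 8 mCherry/sfGFP bins and deep-sequenced. PSI runs from 0 (unstable) to 1 (stable). Backgrounds are wild type, das1Δ and doa10Δ at 30 °C, and wild type, das1Δ, cdc34-1 and cdc53-1 at 37 °C; 2-3 technical replicates each.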

[3] = genetic background: cdc34-1, temperature: 37 C
[4] = genetic background: cdc53-1, temperature: 37 C
[5] = genetic background: das1 deletion, temperature: 30 C
[6] = genetic background: das1 deletion, temperature: 37 C
[7] = genetic background: doa10 deletion, temperature: 30 C
[8] = genetic background: wild type, temperature: 30 C
[9] = genetic background: wild type, temperature: 37 C
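Further: PSI is a weighted mean of sequencing reads over stability bins, variants kept only with over 10 reads, mCherry proximal and sfGFP distal, peptide attached via GGGS linker.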

Sequence: LGALFGRFWWYF
- protein stability index (Saccharomyces cerevisiae [1]): 0.42 ± 0.027
- protein stability index (Saccharomyces cerevisiae [2]; [3]): 0.664 ± 0.024
- protein stability index (Saccharomyces cerevisiae [2]; [4]): 0.7416 ± 0.0074
- protein stability index (Saccharomyces cerevisiae [2]; [5]): 0.654 ± 0.01
- protein stability index (Saccharomyces cerevisiae [2]; [6]): 0.795 ± 0.013
- protein stability index (Saccharomyces cerevisiae [2]; [7]): 0.278 ± 0.012
- protein stability index (Saccharomyces cerevisiae [2]; [8]): 0.291 ± 0.023
- protein stability index (Saccharomyces cerevisiae [2]; [9]): 0.541 ± 0.016

Sequence: LGCLVWGGVWGV
- protein stability index (Saccharomyces cerevisiae [1]): 0.479 ± 0.019
- protein stability index (Saccharomyces cerevisiae [2]; [3]): 0.706 ± 0.04
- protein stability index (Saccharomyces cerevisiae [2]; [4]): 0.7595 ± 0.00079
- protein stability index (Saccharomyces cerevisiae [2]; [5]): 0.625 ± 0.0078
- protein stability index (Saccharomyces cerevisiae [2]; [6]): 0.737 ± 0.025
- protein stability index (Saccharomyces cerevisiae [2]; [7]): 0.628 ± 0.021
- protein stability index (Saccharomyces cerevisiae [2]; [8]): 0.638 ± 0.016
- protein stability index (Saccharomyces cerevisiae [2]; [9]): 0.727 ± 0.041

Sequence: LGFSHTRAIFFV
- protein stability index (Saccharomyces cerevisiae [1]): 0.307 ± 0.011
- protein stability index (Saccharomyces cerevisiae [2]; [3]): 0.651 ± 0.039
- protein stability index (Saccharomyces cerevisiae [2]; [4]): 0.7312 ± 0.0055
- protein stability index (Saccharomyces cerevisiae [2]; [5]): 0.605 ± 0.012
- protein stability index (Saccharomyces cerevisiae [2]; [6]): 0.724 ± 0.0022
- protein stability index (Saccharomyces cerevisiae [2]; [7]): 0.186 ± 0.01
- protein stability index (Saccharomyces cerevisiae [2]; [8]): 0.213 ± 0.0094
- protein stability index (Saccharomyces cerevisiae [2]; [9]): 0.396 ± 0.0071

Sequence: LGGCVSYINLLA
- protein stability index (Saccharomyces cerevisiae [1]): 0.308 ± 0.026
- protein stability index (Saccharomyces cerevisiae [2]; [3]): 0.592 ± 0.032
- protein stability index (Saccharomyces cerevisiae [2]; [4]): 0.682 ± 0.018
- protein stability index (Saccharomyces cerevisiae [2]; [5]): 0.594 ± 0.022
- protein stability index (Saccharomyces cerevisiae [2]; [6]): 0.6997 ± 0.0013
- protein stability index (Saccharomyces cerevisiae [2]; [7]): 0.197 ± 0.024
- protein stability index (Saccharomyces cerevisiae [2]; [8]): 0.236 ± 0.015
- protein stability index (Saccharomyces cerevisiae [2]; [9]): 0.3917 ± 0.0035

Sequence: LGRFHLACLLFL
- protein stability index (Saccharomyces cerevisiae [1]): 0.43 ± 0.048
- protein stability index (Saccharomyces cerevisiae [2]; [3]): 0.588 ± 0.013
- protein stability index (Saccharomyces cerevisiae [2]; [4]): 0.61417 ± 0.00036
- protein stability index (Saccharomyces cerevisiae [2]; [5]): 0.486 ± 0.028
- protein stability index (Saccharomyces cerevisiae [2]; [6]): 0.6113 ± 0.004
- protein stability index (Saccharomyces cerevisiae [2]; [7]): 0.41 ± 0.0065
- protein stability index (Saccharomyces cerevisiae [2]; [8]): 0.412 ± 0.035
- protein stability index (Saccharomyces cerevisiae [2]; [9]): 0.543 ± 0.014

Sequence: LGVLVVAFCGGC
- protein stability index (Saccharomyces cerevisiae [1]): 0.409 ± 0.031
- protein stability index (Saccharomyces cerevisiae [2]; [3]): 0.488 ± 0.041
- protein stability index (Saccharomyces cerevisiae [2]; [4]): 0.554 ± 0.0076
- protein stability index (Saccharomyces cerevisiae [2]; [5]): 0.354 ± 0.034
- protein stability index (Saccharomyces cerevisiae [2]; [6]): 0.541 ± 0.0069
- protein stability index (Saccharomyces cerevisiae [2]; [7]): 0.325 ± 0.017
- protein stability index (Saccharomyces cerevisiae [2]; [8]): 0.347 ± 0.023
- protein stability index (Saccharomyces cerevisiae [2]; [9]): 0.5327 ± 0.00083

Sequence: LIICRSFLCKVR
- protein stability index (Saccharomyces cerevisiae [1]): 0.3 ± 0.01
- protein stability index (Saccharomyces cerevisiae [2]; [3]): 0.236 ± 0.026
- protein stability index (Saccharomyces cerevisiae [2]; [4]): 0.2557 ± 0.0016
- protein stability index (Saccharomyces cerevisiae [2]; [5]): 0.193 ± 0.029
- protein stability index (Saccharomyces cerevisiae [2]; [6]): 0.369 ± 0.0059
- protein stability index (Saccharomyces cerevisiae [2]; [7]): 0.16 ± 0.0049
- protein stability index (Saccharomyces cerevisiae [2]; [8]): 0.174 ± 0.023
- protein stability index (Saccharomyces cerevisiae [2]; [9]): 0.317 ± 0.0052

Sequence: LILIVVVAGSVG
- protein stability index (Saccharomyces cerevisiae [1]): 0.269 ± 0.038
- protein stability index (Saccharomyces cerevisiae [2]; [3]): 0.201 ± 0.019
- protein stability index (Saccharomyces cerevisiae [2]; [4]): 0.392 ± 0.088
- protein stability index (Saccharomyces cerevisiae [2]; [5]): 0.226 ± 0.027
- protein stability index (Saccharomyces cerevisiae [2]; [6]): 0.437 ± 0.0066
- protein stability index (Saccharomyces cerevisiae [2]; [7]): 0.206 ± 0.014
- protein stability index (Saccharomyces cerevisiae [2]; [8]): 0.23 ± 0.013
- protein stability index (Saccharomyces cerevisiae [2]; [9]): 0.385 ± 0.015

Sequence: LIMIRLLYLRLI
- protein stability index (Saccharomyces cerevisiae [1]): 0.102 ± 0.035
- protein stability index (Saccharomyces cerevisiae [2]; [3]): 0.166 ± 0.15
- protein stability index (Saccharomyces cerevisiae [2]; [4]): 0.153 ± 0.042
- protein stability index (Saccharomyces cerevisiae [2]; [5]): 0.269 ± 0.029
- protein stability index (Saccharomyces cerevisiae [2]; [6]): 0.365 ± 0.022
- protein stability index (Saccharomyces cerevisiae [2]; [7]): 0.105 ± 0.017
- protein stability index (Saccharomyces cerevisiae [2]; [8]): 0.0628 ± 0.033
- protein stability index (Saccharomyces cerevisiae [2]; [9]): 0.102 ± 0.0037

Sequence: LINHSWLLLSVL
- protein stability index (Saccharomyces cerevisiae [1]): 0.325 ± 0.035
- protein stability index (Saccharomyces cerevisiae [2]; [3]): 0.368 ± 0.017
- protein stability index (Saccharomyces cerevisiae [2]; [4]): 0.432 ± 0.036
- protein stability index (Saccharomyces cerevisiae [2]; [5]): 0.363 ± 0.038
- protein stability index (Saccharomyces cerevisiae [2]; [6]): 0.521 ± 0.026
- protein stability index (Saccharomyces cerevisiae [2]; [7]): 0.14246 ± 3.7e-05
- protein stability index (Saccharomyces cerevisiae [2]; [8]): 0.133 ± 0.018
- protein stability index (Saccharomyces cerevisiae [2]; [9]): 0.1583 ± 0.00095

Sequence: LLCSLGFRFSLF
- protein stability index (Saccharomyces cerevisiae [1]): 0.377 ± 0.034
- protein stability index (Saccharomyces cerevisiae [2]; [3]): 0.651 ± 0.033
- protein stability index (Saccharomyces cerevisiae [2]; [4]): 0.728 ± 0.011
- protein stability index (Saccharomyces cerevisiae [2]; [5]): 0.651 ± 0.019
- protein stability index (Saccharomyces cerevisiae [2]; [6]): 0.725 ± 0.019
- protein stability index (Saccharomyces cerevisiae [2]; [7]): 0.289 ± 0.0056
- protein stability index (Saccharomyces cerevisiae [2]; [8]): 0.328 ± 0.044
- protein stability index (Saccharomyces cerevisiae [2]; [9]): 0.546 ± 0.038

Sequence: LLFGCLIRIGCS
- protein stability index (Saccharomyces cerevisiae [1]): 0.35 ± 0.051
- protein stability index (Saccharomyces cerevisiae [2]; [3]): 0.268 ± 0.017
- protein stability index (Saccharomyces cerevisiae [2]; [4]): 0.307 ± 0.012
- protein stability index (Saccharomyces cerevisiae [2]; [5]): 0.244 ± 0.048
- protein stability index (Saccharomyces cerevisiae [2]; [6]): 0.403 ± 0.021
- protein stability index (Saccharomyces cerevisiae [2]; [7]): 0.225 ± 0.0046
- protein stability index (Saccharomyces cerevisiae [2]; [8]): 0.253 ± 0.03
- protein stability index (Saccharomyces cerevisiae [2]; [9]): 0.3638 ± 0.00063

Sequence: LLILSVRPFVFV
- protein stability index (Saccharomyces cerevisiae [1]): 0.43 ± 0.0067
- protein stability index (Saccharomyces cerevisiae [2]; [3]): 0.479 ± 0.0094
- protein stability index (Saccharomyces cerevisiae [2]; [4]): 0.52 ± 0.0072
- protein stability index (Saccharomyces cerevisiae [2]; [5]): 0.397 ± 0.032
- protein stability index (Saccharomyces cerevisiae [2]; [6]): 0.544 ± 0.0068
- protein stability index (Saccharomyces cerevisiae [2]; [7]): 0.3727 ± 0.0033
- protein stability index (Saccharomyces cerevisiae [2]; [8]): 0.367 ± 0.025
- protein stability index (Saccharomyces cerevisiae [2]; [9]): 0.515 ± 0.022

Sequence: LLLALLFWPCPI
- protein stability index (Saccharomyces cerevisiae [1]): 0.473 ± 0.02
- protein stability index (Saccharomyces cerevisiae [2]; [3]): 0.5178 ± 0.0016
- protein stability index (Saccharomyces cerevisiae [2]; [4]): 0.526 ± 0.0074
- protein stability index (Saccharomyces cerevisiae [2]; [5]): 0.402 ± 0.028
- protein stability index (Saccharomyces cerevisiae [2]; [6]): 0.559 ± 0.037
- protein stability index (Saccharomyces cerevisiae [2]; [7]): 0.396 ± 0.024
- protein stability index (Saccharomyces cerevisiae [2]; [8]): 0.39 ± 0.038
- protein stability index (Saccharomyces cerevisiae [2]; [9]): 0.518 ± 0.021

Sequence: LLLIGISFLIFY
- protein stability index (Saccharomyces cerevisiae [1]): 0.352 ± 0.05
- protein stability index (Saccharomyces cerevisiae [2]; [3]): 0.184 ± 0.048
- protein stability index (Saccharomyces cerevisiae [2]; [4]): 0.287 ± 0.0035
- protein stability index (Saccharomyces cerevisiae [2]; [5]): 0.208 ± 0.029
- protein stability index (Saccharomyces cerevisiae [2]; [6]): 0.385 ± 0.008
- protein stability index (Saccharomyces cerevisiae [2]; [7]): 0.199 ± 0.025
- protein stability index (Saccharomyces cerevisiae [2]; [8]): 0.21 ± 0.025
- protein stability index (Saccharomyces cerevisiae [2]; [9]): 0.335 ± 0.052

Sequence: LLLTAIRVLRMH
- protein stability index (Saccharomyces cerevisiae [1]): 0.169 ± 0.056
- protein stability index (Saccharomyces cerevisiae [2]; [3]): 0.561 ± 0.016
- protein stability index (Saccharomyces cerevisiae [2]; [4]): 0.7045 ± 0.0038
- protein stability index (Saccharomyces cerevisiae [2]; [5]): 0.587 ± 0.021
- protein stability index (Saccharomyces cerevisiae [2]; [6]): 0.7177 ± 0.0014
- protein stability index (Saccharomyces cerevisiae [2]; [7]): 0.118 ± 0.0018
- protein stability index (Saccharomyces cerevisiae [2]; [8]): 0.149 ± 0.037
- protein stability index (Saccharomyces cerevisiae [2]; [9]): 0.217 ± 0.033

Sequence: LLLVCYSTFIVA
- protein stability index (Saccharomyces cerevisiae [1]): 0.313 ± 0.026
- protein stability index (Saccharomyces cerevisiae [2]; [3]): 0.287 ± 0.057
- protein stability index (Saccharomyces cerevisiae [2]; [4]): 0.359 ± 0.045
- protein stability index (Saccharomyces cerevisiae [2]; [5]): 0.254 ± 0.04
- protein stability index (Saccharomyces cerevisiae [2]; [6]): 0.3813 ± 0.0031
- protein stability index (Saccharomyces cerevisiae [2]; [7]): 0.251 ± 0.011
- protein stability index (Saccharomyces cerevisiae [2]; [8]): 0.28 ± 0.014
- protein stability index (Saccharomyces cerevisiae [2]; [9]): 0.364 ± 0.0041

Sequence: LLLVPLLAFSAS
- protein stability index (Saccharomyces cerevisiae [1]): 0.521 ± 0.035
- protein stability index (Saccharomyces cerevisiae [2]; [3]): 0.56 ± 0.054
- protein stability index (Saccharomyces cerevisiae [2]; [4]): 0.63 ± 0.029
- protein stability index (Saccharomyces cerevisiae [2]; [5]): 0.473 ± 0.034
- protein stability index (Saccharomyces cerevisiae [2]; [6]): 0.6084 ± 0.0031
- protein stability index (Saccharomyces cerevisiae [2]; [7]): 0.462 ± 0.027
- protein stability index (Saccharomyces cerevisiae [2]; [8]): 0.46 ± 0.019
- protein stability index (Saccharomyces cerevisiae [2]; [9]): 0.598 ± 0.015

Sequence: LLMFWLSIWFWG
- protein stability index (Saccharomyces cerevisiae [1]): 0.32 ± 0.035
- protein stability index (Saccharomyces cerevisiae [2]; [3]): 0.22 ± 0.0092
- protein stability index (Saccharomyces cerevisiae [2]; [4]): 0.292 ± 0.0066
- protein stability index (Saccharomyces cerevisiae [2]; [5]): 0.245 ± 0.047
- protein stability index (Saccharomyces cerevisiae [2]; [6]): 0.374 ± 0.008
- protein stability index (Saccharomyces cerevisiae [2]; [7]): 0.268 ± 0.023
- protein stability index (Saccharomyces cerevisiae [2]; [8]): 0.233 ± 0.037
- protein stability index (Saccharomyces cerevisiae [2]; [9]): 0.3551 ± 0.0028

Sequence: LLPYSLSLALRA
- protein stability index (Saccharomyces cerevisiae [1]): 0.412 ± 0.0096
- protein stability index (Saccharomyces cerevisiae [2]; [3]): 0.395 ± 0.0049
- protein stability index (Saccharomyces cerevisiae [2]; [4]): 0.391 ± 0.015
- protein stability index (Saccharomyces cerevisiae [2]; [5]): 0.314 ± 0.048
- protein stability index (Saccharomyces cerevisiae [2]; [6]): 0.468 ± 0.0073
- protein stability index (Saccharomyces cerevisiae [2]; [7]): 0.2604 ± 0.0023
- protein stability index (Saccharomyces cerevisiae [2]; [8]): 0.28 ± 0.027
- protein stability index (Saccharomyces cerevisiae [2]; [9]): 0.429 ± 0.015
